Test results from the DeepSol protein solubility set.

Assay: soluble on expression in E. coli; label from the status in PepcDB or PDB records

Row | Sequence | soluble on expression in E. coli
1 | NKYFENVSKIKYEGPKSNNPYSFKFYNPEEVIDGKTMEEHLRFSIAYWHTFTADGTDQFGKATMQRPWNHYTDPMDIAKARVEAAFEFFDKINAPYFCFHDRDIAPEGDTLRETNKNLDTIVAMIKDYLKTSKTKVLWGTANLFSNPRFVHGASTSCNADVFAYSAAQVKKALEITKELGGENYVFWGGREGYETLLNTDMEFELDNFARFLHMAVDYAKEIGFEGQFLIEPKPKEPTKHQYDFDVANVLAFLRKYDLDKYFKVNIEANHATLAFHDFQHELRYARINGVLGSIDANTGDMLLGWDTDQFPTDIRMTTLAMYEVIKMGGFDKGGLNFDAKVRRASFEPEDLFLGHIAGMDAFAKGFKVAYKLVKDRVFDKFIEERYASYKDGIGADIVSGKADFRSLEKYALERSQIVNKSGRQELLESILNQYLFAE | soluble
2 | AHHHHHHGSKWEEWKPFYERIVKEMGYSIEEDRRAAELLRDILMENDNYIIKEELNSIIMQKVYVFGAGPNLEEALKKGDFKDGTKIAADGATSALLEYGITPDVVVTDLDGRIRDLLEASRKAVMVVHAHGDNMDKLPLVVEFPLVLGTCQTEPLDIVYNFGGFTDGDRAAFLAEEMGAKEIVLVGFDFSGIVGKWSKPWLRDHTPAWESKMKKLKFARELLEWLKNNGRAKIIEFSI | not soluble
3 | MSDLSAQLSAFKNKIKSGPSVIVPRKATFTQSPSSPLSSSTTTTTSKNDANVKKRSTTDSVTRVLKKQKANMGEMTGSHLSTQLHLAVEYIKEHDQPISVEKLQNYLSFDISHTLLPLLNEIDRVKYDESKGTLEYVSLHNIRSSDDLLEFLRRQTTFKGTSVKELKDGWAGCVAAIDELESQGKILVLRNKKENAPRLVWANNGGELGYIDTEFKDMWDQVKLPEPDVLYQKLLDQGLKPTGADPNLIKKQPQQKEKKQKKARRGKITNTHMKGILKDYSQLV | soluble
4 | PMMPPVGVQASILSHDTIRITWADNSLPKHQKITDSRYYTVRWKTNIPANTKYKNANATTLSYLVTGLKPNTLYEFSVMVTKGRRSSTWSMTAHGTTFEL | soluble
5 | MTTHIQKPATGSPLTLLNGVLQVPDQPIIPFIEGDGIGCDVTPAMRSVVDAAVAKVYGGQRQIAWMELFAGQKAVQLYGEGQYLPDETMAAIREYKVAIKGPLETPVGGGIRSLNVAMRQDLDLYVCLRPVRYFEGTPSPMRHPEKVDMVIFRENSEDIYAGIEWPAGSPEAEKIIRFLREEMGVTKIRFPDSSAIGIKPVSTEGSERLIRRTIQYALEHGKPSVSLVHKGNIMKFTEGGFRDWGYALAEREFAGRVFTWRQKAAISKAEGKAAGQKAEQQAIADGKLIIKDVIADNFLQQILLRPEDYSVVATLNLNGDYVSDALAAEVGGIGMAPGANLSDTHAIFEATHGTAPDIAGQGKANPSSLILSAVMMLEHLGWGEAAQAIVAAMNATIAAGEVTGDLAALRGDVPALSTTEFTAALIRRF | soluble
6 | GSHMLEMSGPRAGFYRQELNKTVWEVPQRLQGLRPVGSGAYGSVCSAYDARLRQKVAVKKLSRPFQSLIHARRTYRELRLLKHLKHENVIGLLDVFTPATSIEDFSEVYLVTTLMGADLNNIVKCQALSDEHVQFLVYQLLRGLKYIHSAGIIHRDLKPSNVAVNEDSELRILDFGLARQADEEMTGYVATRWYRAPEIMLNWMHYNQTVDIWSVGCIMAELLQGKALFPGSDYIDQLKRIMEVVGTPSPEVLAKISSEHARTYIQSLPPMPQKDLSSIFRGANPLAIDLLGRMLVLDSDQRVSAAEALAHAYFSQYHDPEDEPEAEPYDESVEAKERTLEEWKELTYQEVLSFKPPEPPKPPGSLEIEQ | soluble
7 | MSNRKLSPDKTQPIYAPNNAFLDECVRVEIINILPLKVLRPAVKESTKYHQILASIQDVGLVEPPAVTPAPGTSGQYFLLDGHLRIEVLKDLGELKVDCLVATDDDTYSYNKRTNRLSAVQSNKMIVRAMERGVSAERLGKALGLSPQTIRQRFRLLNGICAEVVALLGDTDCPANVFNLLRQMKPLRQIEAAELMIGNKNLSVLLAKALLAATPPDQLVMIKKPSQDHQVSAESMARLERELAALQMQIKTVEEDYGPDVLHLTVIKGYLTKLLANAAVVRWLARHQPEYLKEFQSIAELTELPWADNGPEDDLQSTTAEG | not soluble
8 | MDNKVILVGGFHEIIELCEDNDIEIAGIIDNYLTNDTYWGYPIIGTDDKAKVLFETYKNVPVLITPDVPHVRYKLYHYYKSIGFQVASLISRDASISRSAIIGEGTIIQRGANLSSNIKIGQMVKVNTNANIMHDCLIGNYVTVAPNAVLLGKVEIDDKAYIGANATLLPSVKIGENVTVGAGSVVTKSVRPNTVVKGSPLEHHHHHH | soluble
9 | MGSDKIHHHHHHMYHDVSYLLSRLINGPLSLRQIYFASSNGPVPDLAYQVDFPRLEIVLEGEFVDTGAGATLVPGDVLYVPAGGWNFPQWQAPATTFSVLFGKQQLGFSVVQWDGKQYQNLAKQHVARRGPRIGSFLLQTLNEMQMQPQEQQTARLIVASLLSHCRDLLGSQIQTASRSQALFEAIRDYIDERYASALTRESVAQAFYISPNYLSHLFQKTGAIGFNEYLNHTRLEHAKTLLKGYDLKVKEVAHACGFVDSNYFCRLFRKNTERSPSEYRRQYHSQLTEKPTTPE | not soluble
10 | MKIDLNCDLGEGFGVWQMGDDAAMMQIATSVNIACGFHAGDPDIMHATVKLAKQNGVAIGAHPGFRDLHGFGRRPVPGITAAEIENLVAYQIGALQAVAALAGHKVTHVKAHGALSNVACEDDMTARAIASAIKAVDPSLVFVVLANSKLMLAGEAAGLPLAHEVFADRAYEDDGNLVSRKKPGAVLHDPNEIAERVLRMAQDGAVVSVTGKVIKMRTDTVCIHGDTKGAVEIARGVRRKLEASGITVAPFAGTLEHHHHHH | soluble
11 | MAVPPAYADLGKSAKDIFNKGYGFGMVKLDVKTKSASGVEFKTSGSSNTDTSKVVGSLETKYKRSEYGLTFTEKWNTDNTLGTEINIEDQIAKGLKLTFDTTFSPNTGKKSGKVKTAYKREFVNLGCDVDFDFAGPTIHGAAVVGYEGWLAGYQMSFDTAKSKMTQNNFAVGYKTGDFQLHTNVNDGSEFGGSIYQKVSDKLETAVNLAWTAGSNSTRFGIAAKYQLDKDASISAKVNNTSLVGVGYTQSLRPGIKLTLSALVDGKSINSGGHKLGLGLELEA | not soluble
12 | MDPLRAQQLAAELEVEMMADMYNRMTSACHRKCVPPHYKEAELSKGESVCLDRCVSKYLDIHERMGKKLTELSMQDEELMKRVQQSSGPA | soluble
13 | MAKITEENYVSLEDLMQLLNSSESTIRRDLGELEQEGRLHRVHGGAELFHSLQEELSNQEKSVKNSHIKKAIAQRASQLIYDNDVIFIDAGTTTEFLLPFLQAKNLTVVTNSIHHAARLVELSIETIIVGGYVKQTTDASIGNVALEQIRQMNFDKAFLGMNGVDDSYLTTPDMEEAVIKKAVLSNAKLAYILVDGTKIGQVSFVKVAPINDVTIITLGGSASILKQIKEKAKVIEL | soluble
14 | MKCAICDSVALSLHFGAPSCKACAAFFRRTVALDITYDCITGTLDCEVNFERRMACKRCRYQKCIDNNMQRYLVQSKKGRPDASTANGIENPTTSASPSIPSPFSPPCPSSHNSAPSGLLSPMETDEIQKLNEHFFKMDSNLNKSRRMAFTDSRLLDIFSGVCKMPFEKHQLQPFDFRSYRGYQKQEYVMLFNYANTLPGFQELSNASQNFLFRIACGVDYVISSSYYTLCIGTESNLLINQDGTYIQMMPLPLMGDEPGTELMFTRKEELEKYRNIIKPRVNSWLEFIPLFKSLELSFEENAILKALCCWQTAHFKLEECDKENVRKQKSLLVQCLLKFCIDTYGEEEGPARAGNIILFSSSISVSLMGTSRNVVYGLKLPYISKS | not soluble
15 | MADFDTNPTSLYSIKGIVILDQDGNRVLAKYYDRTTFGTVKEQKAFEKSLFSKTSRNTSADILLLDGVTCLYRSNVDLYFYVLGSTRENELFLDATLTCLYDAVSVVLRKNVEKKALIDSMDTIMLIIDEICDEGIIMETDAQAVVQRTALKSDEVSFSDQSVSQIGFSFMKSANEQFKWSLLK | not soluble
16 | MTMTLNELLATNPDGTLEDIAGKYNTSLFAVVEALPTAQCTLATGDRFDQVWDTIATWGEVTLISHTADAILEFKSELPTGTHRHGYFNLRGKNGLSGHIRATSCQHIAFIERKFMGMDTASVVFFNANGAAMFKIFLGRDSHRQLLSAQVDAFRALASELQPEQVLEHHHHHH | soluble
17 | CEEPPTFEAMELIGKPKPYYEIGERVDYKCKKGYFYIPPLATHTICDRNHTWLPVSDDACYRETCPYIRDPLNGQAVPANGTYEFGYQMHFICNEGYYLIGEEILYCELKGSVAIWSGKPPICEKV | soluble
